# Assay results taken from patent US6506732B1, “Enzymatic hydrolysate of milk proteins” (Universite Laval, priority 1999, dated 2003).
# Assay: Hydrophobicity of peptides of subfraction SF4
# Type: physicochemical
# Conditions: single peptides of subfraction SF4
# Description: Further separation of the third fraction (F3) on preparative High Pressure Liquid Chromatography (HPLC) using TSK G2000 SW column and a 5 mM ammonium acetate buffer mobile phase adjusted to pH 6.5 gives five subfractions (SF1 to SF5). Composition of subfraction four (SF4), obtained by RP-HPLC using C-18™ column, containing fifteen peptides having average molecular weight of 900 daltons (200 to 1400 daltons) and average hydrophobicity of 11.7 Kcal/mole (5 to 20 Kcal/mole) is presented in Table 2.
row,Substance,Hydrophobicity [kcal/mol]
1,"ALPQYL (Peptide from enzymatic hydrolysate of milk proteins) [Casein α-s2 175-180, peptide of SF4]",10.9
2,"INNQFLPYPY (Peptide from enzymatic hydrolysate of milk proteins) [Casein κ 51-60, peptide of SF4]",19.9
3,"IPIQY (Peptide from enzymatic hydrolysate of milk proteins) [Casein κ 26-30, peptide of SF4]",11.3
4,"LLY (UniProt P02666 206-208, looked up, fragment) [Casein β 191-193, peptide of SF4]",7.7
5,"LQSW (Peptide from enzymatic hydrolysate of milk proteins) [Casein β 140-143, peptide of SF4]",5.3
6,"LYQEPVL (Peptide from enzymatic hydrolysate of milk proteins) [Casein β 192-198, peptide of SF4]",9.3
7,"LYQGPIVL (Peptide from enzymatic hydrolysate of milk proteins) [Casein α-s2 99-106, peptide of SF4]",17.7
8,"QGPIVLNPW (Peptide from enzymatic hydrolysate of milk proteins) [Casein α-s2 101-109, peptide of SF4]",15.1
9,"SPAQILQWQVL (Peptide from enzymatic hydrolysate of milk proteins) [Casein κ 69-79, peptide of SF4]",15.5
10,"VLPVPQK (Peptide from enzymatic hydrolysate of milk proteins) [Casein β 170-176, peptide of SF4]",12.3
11,"VLVL (Peptide from enzymatic hydrolysate of milk proteins) [β-Lactoglobulin 92-95, peptide of SF4]",8.2
12,"VPLGTQY (Peptide from enzymatic hydrolysate of milk proteins) [Casein α-s1 167-173, peptide of SF4]",9.9
13,"YGLNYYQQKPVA (Peptide from enzymatic hydrolysate of milk proteins) [Casein κ 38-49, peptide of SF4]",14.4
14,"YL: Casein α-s1 91-92, peptide of SF4 (UniProt P02662 106-107, looked up, fragment)",5.3
15,"YVPLGTQY (Peptide from enzymatic hydrolysate of milk proteins) [Casein α-s1 166-173, peptide of SF4]",12.7
